What all share (assay): cell-based or functional assay
Test [1] addresses T1, human sortilin stably expressed on HEK 293 cells (HEK-SORT1 cells) (human, UniProt Q99523 78-831).
T1 sequence (looked up): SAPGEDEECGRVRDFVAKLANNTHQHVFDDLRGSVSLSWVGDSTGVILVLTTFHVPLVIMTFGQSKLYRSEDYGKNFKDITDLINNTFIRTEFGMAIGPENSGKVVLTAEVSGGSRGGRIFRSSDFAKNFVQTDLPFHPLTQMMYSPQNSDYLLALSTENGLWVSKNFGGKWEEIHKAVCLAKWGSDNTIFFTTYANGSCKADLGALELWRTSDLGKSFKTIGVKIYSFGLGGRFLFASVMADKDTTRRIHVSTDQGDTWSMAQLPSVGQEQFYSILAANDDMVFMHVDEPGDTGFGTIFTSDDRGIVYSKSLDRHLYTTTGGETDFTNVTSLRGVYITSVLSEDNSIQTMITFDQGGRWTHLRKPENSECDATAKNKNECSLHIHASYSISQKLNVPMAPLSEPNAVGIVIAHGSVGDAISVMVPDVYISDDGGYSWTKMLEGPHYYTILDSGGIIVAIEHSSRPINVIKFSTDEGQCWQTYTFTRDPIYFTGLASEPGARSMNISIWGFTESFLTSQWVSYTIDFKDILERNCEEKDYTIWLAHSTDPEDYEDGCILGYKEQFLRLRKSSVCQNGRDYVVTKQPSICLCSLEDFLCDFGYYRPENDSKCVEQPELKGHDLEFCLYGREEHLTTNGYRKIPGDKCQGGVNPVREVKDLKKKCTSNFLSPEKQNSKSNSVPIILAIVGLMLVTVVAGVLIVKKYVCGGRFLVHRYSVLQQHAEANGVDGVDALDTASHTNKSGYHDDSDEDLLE

Test [2] concerns the target T1, human sortilin stably expressed on HEK …. This is another data set of the same source.
For test [3] the target is unchanged. The source holds these as a separate data set.
For test [4] the target is unchanged. The source holds these as a separate data set.
For test [5] the target is unchanged. This is another data set of the same source.
Test [6] has the same target. This is another data set of the same source.
The target is the same in test [7]. This is another data set of the same source.
Test [8] shares this target. The source holds these as a separate data set.

Where two headings read alike, the source gives them in different places. Ends that are not written are not given here.

B1: Compound No. 18-AJ9998, Morpholino oligomer-neurotensin conjugate 11 (Cy3 labeled) (peptide)
peptide: XLYENKPRRPYIL
modifications: X at position 1 is 2-azido-acetyl lysine joined via BCN to a Cy3-labeled phosphorodiamidate morpholino oligomer
Take B1: in test [1], the “Mean Fluorescence Intensity (MFI), uptake 37C-4C, at 12 nM” value (shortened to “Mean Fluorescence Intensity … at 12 nM”) was determined as 70 MFI; the “Mean Fluorescence Intensity (MFI), uptake 37C-4C, at 37 nM” value (shortened to “Mean Fluorescence Intensity … at 37 nM”) is 75 MFI; the “Mean Fluorescence Intensity (MFI), uptake 37C-4C, at 111 nM” value (“Mean Fluorescence Intensity … at 111 nM” below) was determined as 86 MFI; the “Mean Fluorescence Intensity (MFI), uptake 37C-4C, at 333 nM” value (shortened to “Mean Fluorescence Intensity … at 333 nM”) turned out to be 138 MFI. In addition, in test [1], the “Mean Fluorescence Intensity (MFI), uptake 37C-4C, at 1000 nM” value (“Mean Fluorescence Intensity … at 1000 nM” below) is 267 MFI and the “Mean Fluorescence Intensity (MFI), uptake 37C-4C, at 3000 nM” value (shortened to “Mean Fluorescence Intensity … at 3000 nM”) came out at 631 MFI.

B2: Compound No. 1162756, extended neurotensin (eNT, XPPPAGSSPGLYENKPRRPYIL) conjugated to 20-mer MOE oligonucleotide with 3'-Cy3 (peptide)
peptide: KPPPAGSSPGLYENKPRRPYIL
modifications: not fully specified (residue 1); also: X side chain clicked via BCN (triazole) and 6-aminohexanol linker to 5' end of oligonucleotide CCAGGCTGGTTATGACTCAG (MOE, 3'-Cy3)
As to B2, in test [2], the “Mean Fluorescence Intensity … at 12 nM” value came out at 67 MFI; the “Mean Fluorescence Intensity … at 37 nM” value was 119 MFI; the “Mean Fluorescence Intensity … at 111 nM” value is 246 MFI; the “Mean Fluorescence Intensity … at 333 nM” value came out at 812 MFI. Moreover, the “Mean Fluorescence Intensity … at 1000 nM” value in test [2] turned out to be 1390 MFI. Further, in test [3], the “Mean Fluorescence Intensity (MFI), uptake 37C-4C, at 7 nM” value (“Mean Fluorescence Intensity … at 7 nM” below) worked out at 51 MFI; the “Mean Fluorescence Intensity (MFI), uptake 37C-4C, at 22 nM” value (“Mean Fluorescence Intensity … at 22 nM” for short) was determined as 122 MFI; the “Mean Fluorescence Intensity (MFI), uptake 37C-4C, at 76 nM” value (shortened to “Mean Fluorescence Intensity … at 76 nM”) was 309 MFI; the “Mean Fluorescence Intensity (MFI), uptake 37C-4C, at 260 nM” value (“Mean Fluorescence Intensity … at 260 nM” below) came out at 937 MFI. In addition, in test [3], the “Mean Fluorescence Intensity (MFI), uptake 37C-4C, at 882 nM” value (shortened to “Mean Fluorescence Intensity … at 882 nM”) stood at 2070 MFI and the “Mean Fluorescence Intensity … at 3000 nM” value worked out at 3380 MFI. For the same molecule, in test [4], the “Mean Fluorescence Intensity … at 12 nM” value was 61 MFI; the “Mean Fluorescence Intensity … at 37 nM” value worked out at 124 MFI; the “Mean Fluorescence Intensity … at 111 nM” value came out at 364 MFI; the “Mean Fluorescence Intensity … at 333 nM” value was 839 MFI. The “Mean Fluorescence Intensity … at 1000 nM” value in test [4] amounted to 1560 MFI. For the same molecule, in test [5], the “Mean Fluorescence Intensity … at 7 nM” value is 53 MFI; the “Mean Fluorescence Intensity … at 22 nM” value is 102 MFI; the “Mean Fluorescence Intensity … at 76 nM” value stood at 259 MFI; the “Mean Fluorescence Intensity … at 260 nM” value stood at 817 MFI. Further, in test [5], the “Mean Fluorescence Intensity … at 882 nM” value was 2100 MFI and the “Mean Fluorescence Intensity … at 3000 nM” value is 4220 MFI.

B3: Compound No. 1162754, KNT neurotensin peptide conjugated to 20-mer uniform 2'-MOE phosphodiester oligonucleotide with 3'-Cy3 (peptide)
peptide: XLYENKPRRPYIL
modifications: not fully specified; position 1 printed dK (X = 2-azido-acetyl lysine); side chain joined via triazolo-BCN carbamate / 6-aminohexanol linker to the 5' end of oligonucleotide … (SEQ ID NO 2, uniform MOE, phosphodiester, 3'-Cy3)
Regarding B3, in test [1], the “Mean Fluorescence Intensity … at 12 nM” value was found to be 67 MFI; the “Mean Fluorescence Intensity … at 111 nM” value was 85 MFI; the “Mean Fluorescence Intensity … at 333 nM” value is 123 MFI; the “Mean Fluorescence Intensity … at 1000 nM” value amounted to 192 MFI. Further, the “Mean Fluorescence Intensity … at 3000 nM” value in test [1] amounted to 427 MFI. Further, in test [6], the “Mean Fluorescence Intensity … at 12 nM” value came to 54 MFI; the “Mean Fluorescence Intensity … at 37 nM” value amounted to 66 MFI; the “Mean Fluorescence Intensity … at 111 nM” value was 101 MFI; the “Mean Fluorescence Intensity … at 333 nM” value came out at 205 MFI. Also, the “Mean Fluorescence Intensity … at 1000 nM” value in test [6] came to 370 MFI. Moreover, in test [7], the “Mean Fluorescence Intensity … at 12 nM” value amounted to 38 MFI; the “Mean Fluorescence Intensity … at 37 nM” value was found to be 47 MFI; the “Mean Fluorescence Intensity … at 333 nM” value was 143 MFI; the “Mean Fluorescence Intensity … at 1000 nM” value stood at 371 MFI. For the same molecule, in test [8], the “Mean Fluorescence Intensity … at 12 nM” value was 43 MFI; the “Mean Fluorescence Intensity … at 37 nM” value is 54 MFI; the “Mean Fluorescence Intensity … at 111 nM” value is 71 MFI; the “Mean Fluorescence Intensity … at 333 nM” value stood at 171 MFI. Besides, the “Mean Fluorescence Intensity … at 1000 nM” value in test [8] was determined as 293 MFI. In test [2], the “Mean Fluorescence Intensity … at 12 nM” value is 43 MFI; the “Mean Fluorescence Intensity … at 37 nM” value came out at 54 MFI; the “Mean Fluorescence Intensity … at 111 nM” value was 71 MFI; the “Mean Fluorescence Intensity … at 333 nM” value came to 171 MFI. The “Mean Fluorescence Intensity … at 1000 nM” value in test [2] is 293 MFI. Moreover, in test [5], the “Mean Fluorescence Intensity … at 7 nM” value was determined as 43 MFI; the “Mean Fluorescence Intensity … at 22 nM” value is 50 MFI; the “Mean Fluorescence Intensity … at 76 nM” value was 73 MFI; the “Mean Fluorescence Intensity … at 260 nM” value was 145 MFI. Also, in test [5], the “Mean Fluorescence Intensity … at 882 nM” value was determined as 381 MFI and the “Mean Fluorescence Intensity … at 3000 nM” value worked out at 1300 MFI.

The values are drawn from patent publication US20230338555A1 (IONIS PHARMACEUTICALS, published 2023).
